The values that follow are results of earlier work, collected in PMC5501900.

In general, Kd refers to a measure of binding affinity in units of concentration.

This series deals with Vinculin tail tail (Homo sapiens) (UniProt P18206).

For the substance “Vinculin head head (from UniProt P18206)”, the Kd is below 1 nM.
